Data on four molecules can be found in patent US20170260289A1 (Novo Nordisk, published 2017).

In assay [1] the target is T1, TFPI (1-79) fragment, N-terminal and KPI-1 domain of TFPI with an N-terminally attached GSSGSSG tag (human, UniProt P10646 29-107).
T1 construct: also called tagged TFPI KPI-1/N-terminal; TFPI KPI-1
As to the kind of experiment: SPR (Biacore T200), bispecific captured by anti-Fab kappa antibody, antigen as analyte, 1:1 Langmuir fit. On the procedure:
(§1) Binding studies were performed on a Biacore T200 (GEHealthcare) that measures molecular interactions in real time through surface plasmon resonance. Experiments were run at 25° C. and the samples were stored at 15° C. in the sample compartment. The signal (RU, response units) reported by the Biacore is directly correlated to the mass on the individual sensor chip surfaces in four serial flow cells. Goat anti Fab Kappa Light Chain antibody (Nordic Biosite) was immobilized onto all four flow cells of a CM4 sensor chip according to the manufacturer's instructions. Capture of purified bispecific molecules was conducted by diluting the proteins into running buffer (10 mM Hepes 0.3 M NaCl, 5 mM CaCl₂, 0.05% surfactant P20, 10 mg/ml BSA, pH 7.4) and injected over flowcell 2, 3 or 4, creating a reference surface in flow cell 1 with only anti-Fab antibody immobilized. […] Binding of TFPI FL (SEQ ID NO: 1), TFPI (1-79), and TFPI KPI-2 proteins was conducted by injecting analyte (antigen) over all flow cells to allow for comparative analyses of binding to different captured bispecific molecules relative to binding to the reference surface. The TFPI (1-79) fragment spans the N-terminal and KPI-1 domain of TFPI with an N-terminally attached GSSGSSG tag (SEQ ID NO: 16). The TFPI KPI-2 fragment spans the KPI-2 domain of TFPI with a C-terminal HIS₆ tag (SEQ ID NO: 3). Antigens were diluted serially into running buffer, injected at 30 μl/min for 240 s and allowed to dissociate for 600 s or 14000 s. Prolonging the monitoring of dissociation phase for antigens that dissociates slowly with kd approaching 1E-5 s⁻¹ is crucial to get a robust value for the dissociation rate. The CM4 surface was regenerated after each injection cycle of analyte via injection of 10 mM Glycine, pH 2.1. This regeneration step removed the anti-TFPI bispecific molecule and any bound antigen from the immobilized capture antibody surface, and allowed for the subsequent binding of the next interaction sample pair.

In assay [2] the target is TFPI KPI-2 fragment spanning the KPI-2 domain of TFPI with a C-terminal HIS6 tag (human, UniProt P10646 119-178). Described as above. How it is done:
as §1

Assay [3] has as its target T2, endogenous TFPI of human plasma (human, UniProt P10646 29-304, limits assumed). In words: cell-based or functional assay.
Assay [4] concerns the target T3, human TFPI alpha (full-length TFPIα) (human, UniProt P10646 29-304). In words: cell-based or functional assay.
The target of assay [5] is T2, endogenous TFPI of human plasma. In words: cell-based or functional assay. This is another data set of the same source.
Assay [6] concerns the target T3, human TFPI alpha (full-length TFPIα). In words: cell-based or functional assay. The source holds these as a separate data set.
The target of assay [7] is TFPI (form not stated, Example 5) (UniProt P10646 29-304, limits assumed). In words: method not stated.

B1: mAb 0421 (bispecific antibody, human IgG1, kappa)
heavy 1: not shown
light 1: DIVMTQTPLSLSVTPGQPASISCKSSQSLLESDGKTYLNWYLQKPGQSPQLLIYLVSILDSGVPDRFSGSGSGTDFTLKISRVEAEDVGVYYCLQATHFPQTFGGGTKVEIKRTVAAPSVFIFPPSDEQLKSGTASVVCLLNNFYPREAKVQWKVDNALQSGNSQESVTEQDSKDSTYSLSSTLTLSKADYEKHKVYACEVTHQGLSSPVTKSFNRGEC
heavy 2: not shown
light 2: GIVMTQSQKFMSTTVGDRVSITCKASQSVGPAVAWYQQKPGQSPKLLIYSASNRYTGVPDRFTGSGSGADFTLTISNLHSEDLADYFCQQYTSYPTFGGGTKLEIKRTVAAPSVFIFPPSDEQLKSGTASVVCLLNNFYPREAKVQWKVDNALQSGNSQESVTEQDSKDSTYSLSSTLTLSKADYEKHKVYACEVTHQGLSSPVTKSFNRGEC
notes: Full length human IgG1 format, made by controlled Fab-arm exchange; also called asymmetric bispecific antibody derived from mAb 0310 and mAb 0336
Take B1: in assay [1], the Kd worked out at 0.3 nM, the koff was found to be 0.0001 s⁻¹ and the kon is 400000 M⁻¹ s⁻¹. In assay [2], the Kd turned out to be 0.02 nM, the koff was 8e-05 s⁻¹ and the kon is 5e+06 M⁻¹ s⁻¹. In addition, in assay [3], the “Peak (nM); thrombin generation, FVIII-neutralized plasma, no TFPI added; 10.0 nM mAb” value worked out at 182 nM and the “ttPeak (min); thrombin generation, FVIII-neutralized plasma, no TFPI added; 10.0 nM mAb” value was 6.9 min. In assay [4], the “Peak (nM); thrombin generation, FVIII-neutralized plasma + 10 nM TFPI alpha; 100.0 nM mAb” value came to 177 nM and the “ttPeak (min); thrombin generation, FVIII-neutralized plasma + 10 nM TFPI alpha; 100.0 nM mAb” value stood at 7 min. In assay [5], the “EC50 (half-maximal response); thrombin generation, FVIII-neutralised plasma, no TFPI added; four-parameter fit, average of 2 experiments” value turned out to be 1.1 nM and the “EC50 of the thrombin generation response in FVIII-neutralised plasma without added TFPI” value amounted to 1.1 nM. In assay [6], the “EC50; thrombin generation, FVIII-neutralised plasma + 10 nM full-length TFPI alpha; single experiment” value was determined as 9.5 nM and the “EC50 of the thrombin generation response in FVIII-neutralised plasma + 10 nM full-length TFPI alpha” value came out at 9.5 nM.

B2: BiFab 9041 (bispecific antibody)
heavy 1: EVQLVESGGGLVKPGGSLRLSCAASGFTFSNYAMSWVRQTPEKRLEWVATISRSGSYSYFPDSVQGRFTISRDNAKNSLYLQMNSLRAEDTAVYYCARLGGYDEGDAMDSWGQGTTVTVSSASTKGPSVFPLAPCSRSTSESTAALGCLVKDYFPEPVTVSWNSGALTSGVHTFPAVLQSSGLYSLSSVVTVPSSSLGTKTYTCNVDHKPSNTKVDKRVESKYGPPC
light 1: DIVMTQTPLSLSVTPGQPASISCKSSQSLLESDGKTYLNWYLQKPGQSPQLLIYLVSILDSGVPDRFSGSGSGTDFTLKISRVEAEDVGVYYCLQATHFPQTFGGGTKVEIKRTVAAPSVFIFPPSDEQLKSGTASVVCLLNNFYPREAKVQWKVDNALQSGNSQESVTEQDSKDSTYSLSSTLTLSKADYEKHKVYACEVTHQGLSSPVTKSFNRGEC
heavy 2: QVQLKQSGPGLVQPSQSLSITCTVSGFSLTNYGVHWVRQSPGKGLEWLAVIWRGGSIDYNAAFMSRLSITKDNSKSQVFFKMNSLQADDTAIYYCAKNSHGNYVGYAMDYWGQGTSVTVSSASTKGPSVFPLAPCSRSTSESTAALGCLVKDYFPEPVTVSWNSGALTSGVHTFPAVLQSSGLYSLSSVVTVPSSSLGTKTYTCNVDHKPSNTKVDKRVESKYGPPC
light 2: GIVMTQSQKFMSTTVGDRVSITCKASQSVGPAVAWYQQKPGQSPKLLIYSASNRYTGVPDRFTGSGSGADFTLTISNLHSEDLADYFCQQYTSYPTFGGGTKLEIKRTVAAPSVFIFPPSDEQLKSGTASVVCLLNNFYPREAKVQWKVDNALQSGNSQESVTEQDSKDSTYSLSSTLTLSKADYEKHKVYACEVTHQGLSSPVTKSFNRGEC
modifications: C-terminal cysteine linked through the bis-maleimide linker to the C-terminal cysteine of the other Fab's heavy chain; C-terminal cysteine linked through 1,16-bis(2,5-pyrroledione-1-yl)-4,13-diaza-7,10-dioxa-3,14-dioxohexadecane to the C-terminal cysteine of the other Fab's heavy chain
notes: also called Fab 0088 conjugated to Fab 0295
In assay [1], B2 gave a Kd of 0.9 nM, a koff of 0.0003 s⁻¹ and a kon of 300000 M⁻¹ s⁻¹. In assay [2], this molecule returned a Kd of 0.01 nM, a koff of 6e-05 s⁻¹ and a kon of 4e+06 M⁻¹ s⁻¹.

B3: mAb 2007 (antibody, V domains shown)
VH: EVQLVESGGGLVKPGGSLRLSCAASGFTFSNYAMSWVRQAPGKGLEWVSTISRSGSYSYYPDSVKGRFTISRDNAKNSLYLQMNSLRAEDTAVYYCARLGGYDEGDAMDSWGQGTTVTVSS
VL: DIVMTQTPLSLSVTPGQPASISCKSSQSLLESDGKTYLNWYLQKPGQSPQLLIYLVSILDSGVPDRFSGSGSGTDFTLKISRVEAEDVGVYYCLQATHFPQTFGGGTKVEIKR
notes: Grafted HzTFPI4F36 with a single A60P (Kabat) back mutation in VH
As for B3, in assay [7], the “fold lower TFPI binding affinity than mAb 2021” value is 10 fold.

B4: mAb 2000 (antibody, IgG4, V domains shown)
VH: EVQLVESGGGLVKPGGSLRLSCAASGFTFSNYAMSWVRQAPGKGLEWVSTISRSGSYSYYADSVKGRFTISRDNAKNSLYLQMNSLRAEDTAVYYCARLGGYDEGDAMDSWGQGTTVTVSS
VL: DIVMTQTPLSLSVTPGQPASISCKSSQSLLESDGKTYLNWYLQKPGQSPQLLIYLVSILDSGVPDRFSGSGSGTDFTLKISRVEAEDVGVYYCLQATHFPQTFGGGTKVEIKR
notes: Human kappa/IgG4 (S241P); also called initial grafted HzTFPI4F36 variant
B4: the “fold lower TFPI binding affinity than mAb 2021” value in assay [7] was about 1000 fold.

Broadly, the Kd is the constant that tells how readily two partners part at equilibrium. A high value points to lower affinity. Broadly, the koff is the rate constant with which the complex falls apart. In general, kon refers to a measure of how fast the partners come together. A lower kon goes with slower complex formation.
